The target in assay [1] is soluble human FcγRIIb (biotinylated) (human) (UniProt P31994). Kind of assay: ELISA: IgG captured on PSA-coated plate, biotinylated soluble FcγR, NeutrAvidin-AP, A560 background-subtracted and normalized.
The target in assay [2] is soluble human FcγRIII (biotinylated) (human) (UniProt P08637). The assay is described as above.
Assay [3] deals with soluble human FcγRIIa (biotinylated) (human) (UniProt P12318). The assay is described as above.
Assay [4] concerns the target soluble human FcγRIIb (biotinylated) (human) (UniProt P31994). Briefly: ELISA screen in a manner similar to the anti-PSA library, anti-TNFα parent IgG, biotinylated soluble FcγR, normalized signal.
Assay [5] addresses soluble human FcγRIII (biotinylated) (human) (UniProt P08637). The description is as above.

UniProt P31994, sequence (P31994 43-217): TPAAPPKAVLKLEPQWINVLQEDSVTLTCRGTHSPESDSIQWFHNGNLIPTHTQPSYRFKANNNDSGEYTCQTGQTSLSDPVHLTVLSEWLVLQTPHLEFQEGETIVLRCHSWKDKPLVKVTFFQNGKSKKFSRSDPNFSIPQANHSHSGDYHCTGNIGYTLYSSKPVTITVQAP
UniProt P08637, sequence (P08637 17-208): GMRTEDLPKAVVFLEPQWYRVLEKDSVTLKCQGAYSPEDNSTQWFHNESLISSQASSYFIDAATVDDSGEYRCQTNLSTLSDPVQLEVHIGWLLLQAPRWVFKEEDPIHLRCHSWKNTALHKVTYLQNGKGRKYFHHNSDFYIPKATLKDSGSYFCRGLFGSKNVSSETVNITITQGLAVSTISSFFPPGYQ
UniProt P12318, sequence (P12318 34-217): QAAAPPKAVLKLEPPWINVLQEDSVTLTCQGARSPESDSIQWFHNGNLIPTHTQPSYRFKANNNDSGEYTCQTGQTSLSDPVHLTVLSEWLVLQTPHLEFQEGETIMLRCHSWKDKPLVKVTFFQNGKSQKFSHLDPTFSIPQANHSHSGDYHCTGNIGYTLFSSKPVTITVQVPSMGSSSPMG

With “anti-PSA IgG Fc variant E294N (antibody)”, in assay [1], the relative FcγRIIb (relative to parental antibody = 1.0) was 0.672. In assay [2], the relative FcγRIII (relative to parental antibody = 1.0) was 1.14.
For “anti-PSA IgG Fc variant Q295K (antibody)” the same measures were 0.892 and 1.47.
“anti-PSA IgG Fc variant Q295L (antibody)”: the relative FcγRIIa (relative to parental antibody = 1.0) in assay [3] stood at 1.44. In addition, the relative FcγRIIb (relative to parental antibody = 1.0) in assay [1] was found to be 1.34. In assay [2], the relative FcγRIII (relative to parental antibody = 1.0) amounted to 1.06.
“anti-PSA IgG Fc variant S298D (antibody)”: the relative FcγRIIb (relative to parental antibody = 1.0) in assay [1] came out at 0.188. Also, in assay [2], the relative FcγRIII (relative to parental antibody = 1.0) was determined as 2.31.
For “anti-PSA IgG Fc variant S298N (antibody)” the same measures were 0.363 and 1.42.
Turning to “anti-PSA IgG Fc variant S298V (antibody)”, in assay [1], the relative FcγRIIb (relative to parental antibody = 1.0) came to 0.592. In addition, in assay [2], the relative FcγRIII (relative to parental antibody = 1.0) was 2.8.
On to “anti-PSA IgG Fc variant Y300I (antibody)”, for which, in assay [1], the relative FcγRIIb (relative to parental antibody = 1.0) is 1.26. Moreover, the relative FcγRIII (relative to parental antibody = 1.0) in assay [2] is 1.38.
For “anti-PSA IgG Fc variant Y300L (antibody)” the same measures were 1.36 and 1.81.
As to “anti-TNFα IgG Fc variant D280H (antibody)”, the relative FcγRIIb (relative to parental antibody = 1.0) in assay [4] is 0.92. Moreover, the relative FcγRIII (relative to parental antibody = 1.0) in assay [5] amounted to 1.24.
For the substance “anti-TNFα IgG Fc variant D280Q (antibody)”, the relative FcγRIIb (relative to parental antibody = 1.0) in assay [4] was determined as 0.87. The relative FcγRIII (relative to parental antibody = 1.0) in assay [5] was determined as 1.19.
For “anti-TNFα IgG Fc variant D280Y (antibody)” the same measures were 2.14 and 1.23.
For “anti-TNFα IgG Fc variant K290G (antibody)” the same measures were 1.46 and 1.64.
For “anti-TNFα IgG Fc variant K290S (antibody)” the same measures were 1.4 and 1.23.

The values are drawn from patent publication US20060153838A1.
